Experimental data: article PMC6473903, “Isoform-Specific NO Synthesis by Arabidopsis thaliana Nitrate Reductase” (Plants, 2019)

How the values were obtained:
[1] = substrate: O=NO; experiment: BV:nitrite steady-state assay, A595; type: biochemical, Arabidopsis thaliana; details: reduced benzyl viologen as electron donor, pH 7.5, 22-25 °C, anaerobic
Excerpt: BV:nitrite steady-state assay, A595 on NIA1-Mo-heme

[2] = molecular target: T1, Arabidopsis thaliana NIA1-Mo-heme fragment (residues 1-627) (Arabidopsis thaliana) (UniProt P11832)
T1 sequence: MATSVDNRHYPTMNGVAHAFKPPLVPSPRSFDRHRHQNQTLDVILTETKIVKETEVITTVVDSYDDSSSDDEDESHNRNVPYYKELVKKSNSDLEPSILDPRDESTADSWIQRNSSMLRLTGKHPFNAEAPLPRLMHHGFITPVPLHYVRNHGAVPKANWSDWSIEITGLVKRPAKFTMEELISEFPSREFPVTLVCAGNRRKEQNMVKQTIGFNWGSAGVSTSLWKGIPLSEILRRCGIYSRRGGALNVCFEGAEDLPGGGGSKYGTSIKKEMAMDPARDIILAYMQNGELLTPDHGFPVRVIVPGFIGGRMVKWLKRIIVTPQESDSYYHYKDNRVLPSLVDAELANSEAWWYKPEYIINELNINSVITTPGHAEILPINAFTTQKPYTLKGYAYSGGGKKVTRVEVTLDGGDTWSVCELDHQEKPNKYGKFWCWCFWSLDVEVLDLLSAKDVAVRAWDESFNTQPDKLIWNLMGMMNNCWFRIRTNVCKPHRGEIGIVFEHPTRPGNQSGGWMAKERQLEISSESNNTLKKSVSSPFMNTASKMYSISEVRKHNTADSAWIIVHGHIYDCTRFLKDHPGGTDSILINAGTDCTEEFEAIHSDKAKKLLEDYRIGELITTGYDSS

[3] = substrate: O=NO; experiment: BV:nitrite steady-state assay, A595; type: biochemical, Arabidopsis thaliana; details: reduced benzyl viologen as electron donor, pH 7.5, 22-25 °C, anaerobic; remark: listed apart in the source
Excerpt: BV:nitrite steady-state assay, A595 on NIA1-Mo

[4] = molecular target: T2, Arabidopsis thaliana NIA2-Mo-heme fragment (residues 1-625) (Arabidopsis thaliana) (UniProt P11035)
T2 sequence: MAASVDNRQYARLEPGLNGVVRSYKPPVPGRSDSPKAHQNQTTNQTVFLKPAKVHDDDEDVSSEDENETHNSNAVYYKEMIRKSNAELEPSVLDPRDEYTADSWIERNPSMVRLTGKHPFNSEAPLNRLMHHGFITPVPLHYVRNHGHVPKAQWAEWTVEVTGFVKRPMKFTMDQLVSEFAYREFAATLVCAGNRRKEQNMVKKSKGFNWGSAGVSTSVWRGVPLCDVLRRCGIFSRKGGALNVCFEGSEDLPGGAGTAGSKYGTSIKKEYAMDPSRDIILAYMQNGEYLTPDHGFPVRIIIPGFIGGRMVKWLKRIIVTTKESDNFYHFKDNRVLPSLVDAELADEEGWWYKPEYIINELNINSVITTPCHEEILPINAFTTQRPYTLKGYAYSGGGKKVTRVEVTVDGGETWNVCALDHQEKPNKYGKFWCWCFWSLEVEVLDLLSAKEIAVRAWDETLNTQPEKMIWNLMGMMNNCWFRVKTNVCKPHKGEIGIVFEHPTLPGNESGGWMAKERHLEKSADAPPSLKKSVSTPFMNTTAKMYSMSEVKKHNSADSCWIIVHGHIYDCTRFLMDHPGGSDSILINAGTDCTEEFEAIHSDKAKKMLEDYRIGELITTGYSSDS

B1: NIA1-Mo-heme (Arabidopsis thaliana) (protein)
chain: MATSVDNRHYPTMNGVAHAFKPPLVPSPRSFDRHRHQNQTLDVILTETKIVKETEVITTVVDSYDDSSSDDEDESHNRNVPYYKELVKKSNSDLEPSILDPRDESTADSWIQRNSSMLRLTGKHPFNAEAPLPRLMHHGFITPVPLHYVRNHGAVPKANWSDWSIEITGLVKRPAKFTMEELISEFPSREFPVTLVCAGNRRKEQNMVKQTIGFNWGSAGVSTSLWKGIPLSEILRRCGIYSRRGGALNVCFEGAEDLPGGGGSKYGTSIKKEMAMDPARDIILAYMQNGELLTPDHGFPVRVIVPGFIGGRMVKWLKRIIVTPQESDSYYHYKDNRVLPSLVDAELANSEAWWYKPEYIINELNINSVITTPGHAEILPINAFTTQKPYTLKGYAYSGGGKKVTRVEVTLDGGDTWSVCELDHQEKPNKYGKFWCWCFWSLDVEVLDLLSAKDVAVRAWDESFNTQPDKLIWNLMGMMNNCWFRIRTNVCKPHRGEIGIVFEHPTRPGNQSGGWMAKERQLEISSESNNTLKKSVSSPFMNTASKMYSISEVRKHNTADSAWIIVHGHIYDCTRFLKDHPGGTDSILINAGTDCTEEFEAIHSDKAKKLLEDYRIGELITTGYDSS
notes: N-terminal Moco + hinge 1 + heme domain fragment, residues 1-627; pQE80L, E. coli, Ni-NTA (IMAC) and SEC purified
Km [1]: 35.5 ± 2.7 µM | kcat [1]: 19.8 ± 4.8 s⁻¹

B2: Arabidopsis thaliana NIA1-FAD fragment (residues 628-917) (domain or fragment)
chain: PNVSVHGASNFGPLLAPIKELTPQKNIALVNPREKIPVRLIEKTSISHDVRKFRFALPSEDQQLGLPVGKHVFVCANINDKLCLRAYTPTSAIDAVGHIDLVVKVYFKDVHPRFPNGGLMSQHLDSLPIGSMIDIKGPLGHIEYKGKGNFLVSGKPKFAKKLAMLAGGTGITPIYQIIQSILSDPEDETEMYVVYANRTEDDILVREELEGWASKHKERLKIWYVVEIAKEGWSYSTGFITEAVLREHIPEGLEGESLALACGPPPMIQFALQPNLEKMGYNVKEDLLIF
apparent kcat of the steady-state NADH:nitrate assay of re-constituted NIA1 (100 nM NIA1-Mo-heme + 5 µM NIA1-FAD, ratio 1:50) [2]: 9.6 s⁻¹

B3: NIA1-Mo (Arabidopsis thaliana) (protein)
chain: MATSVDNRHYPTMNGVAHAFKPPLVPSPRSFDRHRHQNQTLDVILTETKIVKETEVITTVVDSYDDSSSDDEDESHNRNVPYYKELVKKSNSDLEPSILDPRDESTADSWIQRNSSMLRLTGKHPFNAEAPLPRLMHHGFITPVPLHYVRNHGAVPKANWSDWSIEITGLVKRPAKFTMEELISEFPSREFPVTLVCAGNRRKEQNMVKQTIGFNWGSAGVSTSLWKGIPLSEILRRCGIYSRRGGALNVCFEGAEDLPGGGGSKYGTSIKKEMAMDPARDIILAYMQNGELLTPDHGFPVRVIVPGFIGGRMVKWLKRIIVTPQESDSYYHYKDNRVLPSLVDAELANSEAWWYKPEYIINELNINSVITTPGHAEILPINAFTTQKPYTLKGYAYSGGGKKVTRVEVTLDGGDTWSVCELDHQEKPNKYGKFWCWCFWSLDVEVLDLLSAKDVAVRAWDESFNTQPDKLIWNLMGMMNNCWFRIRT
notes: Moco domain only, residues 1-488; His-tagged, pQE80L, E. coli TP1004
Km [3]: 35.3 ± 3.2 µM | kcat [3]: 138 ± 2.5 s⁻¹

B4: Arabidopsis thaliana NIA2-FAD fragment (residues 626-917) (domain or fragment)
chain: SSPNNSVHGSSAVFSLLAPIGEATPVRNLALVNPRAKVPVQLVEKTSISHDVRKFRFALPVEDMVLGLPVGKHIFLCATINDKLCLRAYTPSSTVDVVGYFELVVKIYFGGVHPRFPNGGLMSQYLDSLPIGSTLEIKGPLGHVEYLGKGSFTVHGKPKFADKLAMLAGGTGITPVYQIIQAILKDPEDETEMYVIYANRTEEDILLREELDGWAEQYPDRLKVWYVVESAKEGWAYSTGFISEAIMREHIPDGLDGSALAMACGPPPMIQFAVQPNLEKMQYNIKEDFLIF
apparent kcat of the steady-state NADH:nitrate assay of re-constituted NIA2 (100 nM NIA2-Mo-heme + 5 µM NIA2-FAD, ratio 1:50) [4]: 13.4 s⁻¹
